B1: library; numbered along this chain (parent)
chain: MAAAAAAAAEQQSSNGPVKKSMREKAVERRSVNKEHNSNFKAGYIPIDEDRLHKTGLRGRKGNLAICVIILLFILAVINLIITLVIWAVIRIGPNGCDSMEFHESGLLRFKQVSDMGVIHPLYKSTVGGRRNENLVITGNNQPIVFQQGTTKLSVENNKTSITSDIGMQFFDPRTQNILFSTDYETHEFHLPSGVKSLNVQKASTERITSNATSDLNIKVDGRAIVRGNEGVFIMGKTIEFHMGGNMELKAENSIILNGSVMVSTTRLPSSSSGDQLGSGDWVRYKLCMCADGTLFKVQVTSQNMGCQISDNPCGNTH

Variants of: B1
Experiment: SGCB cell-surface expression functional score (HA stain, bin4 vs bin1, normalised to synonymous) (log10 ratio); higher = more cell-surface SGCB (functional)
Method in brief: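 HEK293 cells stably expressing alpha-, gamma- and delta-sarcoglycan received codon-saturation libraries of HA-tagged, YFP-fused human beta-sarcoglycan by lentiviral transduction at MOI <0.1, performed in duplicate. Cells positive for YFP were sorted after 72 hours and cultured for 5–7 days, then stained on ice with Alexa Fluor 647 anti-HA and fixed. Fixed cells were sorted into four 5% intensity bins and amplicon-sequenced, and the log ratio of highest-bin to lowest-bin variant frequency, as a median over codons and transductions, gives the functional score. Per section, synonymous variants were scaled to mean 0, SD 0.5.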

Row | Variant | SGCB cell-surface expression functional score (log10)
1 | MAAAAAAAAEQQSSNGPVKKSMREKAVERRSVNKEHNSNFKAGYIPIDEDRLHKTGLRGRKGNLAICVIILLFILAVINLIITLVIWAVIRIGPNGCDSMEFHESGLLRFKQVSDMGVIHPLYKSTVGGRRNENLVYTGNNQPIVFQQGTTKLSVENNKTSITSDIGMQFFDPRTQNILFSTDYETHEFHLPSGVKSLNVQKASTERITSNATSDLNIKVDGRAIVRGNEGVFIMGKTIEFHMGGNMELKAENSIILNGSVMVSTTRLPSSSSGDQLGSGDWVRYKLCMCADGTLFKVQVTSQNMGCQISDNPCGNTH [I137Y] | -1.36
2 | MAAAAAAAAEQQSSNGPVKKSMREKAVERRSVNKEHNSNFKAGYIPIDEDRLHKTGLRGRKGNLAICVIILLFILAVINLIITLVIWAVIRIGPNGCDSMEFHESGLLRFKQVSDMGVIHPLYKSTVGGRRNENLVWTGNNQPIVFQQGTTKLSVENNKTSITSDIGMQFFDPRTQNILFSTDYETHEFHLPSGVKSLNVQKASTERITSNATSDLNIKVDGRAIVRGNEGVFIMGKTIEFHMGGNMELKAENSIILNGSVMVSTTRLPSSSSGDQLGSGDWVRYKLCMCADGTLFKVQVTSQNMGCQISDNPCGNTH [I137W] | -0.8
3 | MAAAAAAAAEQQSSNGPVKKSMREKAVERRSVNKEHNSNFKAGYIPIDEDRLHKTGLRGRKGNLAICVIILLFILAVINLIITLVIWAVIRIGPNGCDSMEFHESGLLRFKQVSDMGVIHPLYKSTVGGRRNENLVISGNNQPIVFQQGTTKLSVENNKTSITSDIGMQFFDPRTQNILFSTDYETHEFHLPSGVKSLNVQKASTERITSNATSDLNIKVDGRAIVRGNEGVFIMGKTIEFHMGGNMELKAENSIILNGSVMVSTTRLPSSSSGDQLGSGDWVRYKLCMCADGTLFKVQVTSQNMGCQISDNPCGNTH [T138S] | 0.4
4 | MAAAAAAAAEQQSSNGPVKKSMREKAVERRSVNKEHNSNFKAGYIPIDEDRLHKTGLRGRKGNLAICVIILLFILAVINLIITLVIWAVIRIGPNGCDSMEFHESGLLRFKQVSDMGVIHPLYKSTVGGRRNENLVIQGNNQPIVFQQGTTKLSVENNKTSITSDIGMQFFDPRTQNILFSTDYETHEFHLPSGVKSLNVQKASTERITSNATSDLNIKVDGRAIVRGNEGVFIMGKTIEFHMGGNMELKAENSIILNGSVMVSTTRLPSSSSGDQLGSGDWVRYKLCMCADGTLFKVQVTSQNMGCQISDNPCGNTH [T138Q] | -0.47
5 | MAAAAAAAAEQQSSNGPVKKSMREKAVERRSVNKEHNSNFKAGYIPIDEDRLHKTGLRGRKGNLAICVIILLFILAVINLIITLVIWAVIRIGPNGCDSMEFHESGLLRFKQVSDMGVIHPLYKSTVGGRRNENLVIPGNNQPIVFQQGTTKLSVENNKTSITSDIGMQFFDPRTQNILFSTDYETHEFHLPSGVKSLNVQKASTERITSNATSDLNIKVDGRAIVRGNEGVFIMGKTIEFHMGGNMELKAENSIILNGSVMVSTTRLPSSSSGDQLGSGDWVRYKLCMCADGTLFKVQVTSQNMGCQISDNPCGNTH [T138P] | -1
6 | MAAAAAAAAEQQSSNGPVKKSMREKAVERRSVNKEHNSNFKAGYIPIDEDRLHKTGLRGRKGNLAICVIILLFILAVINLIITLVIWAVIRIGPNGCDSMEFHESGLLRFKQVSDMGVIHPLYKSTVGGRRNENLVIMGNNQPIVFQQGTTKLSVENNKTSITSDIGMQFFDPRTQNILFSTDYETHEFHLPSGVKSLNVQKASTERITSNATSDLNIKVDGRAIVRGNEGVFIMGKTIEFHMGGNMELKAENSIILNGSVMVSTTRLPSSSSGDQLGSGDWVRYKLCMCADGTLFKVQVTSQNMGCQISDNPCGNTH [T138M] | 0.02
7 | MAAAAAAAAEQQSSNGPVKKSMREKAVERRSVNKEHNSNFKAGYIPIDEDRLHKTGLRGRKGNLAICVIILLFILAVINLIITLVIWAVIRIGPNGCDSMEFHESGLLRFKQVSDMGVIHPLYKSTVGGRRNENLVIEGNNQPIVFQQGTTKLSVENNKTSITSDIGMQFFDPRTQNILFSTDYETHEFHLPSGVKSLNVQKASTERITSNATSDLNIKVDGRAIVRGNEGVFIMGKTIEFHMGGNMELKAENSIILNGSVMVSTTRLPSSSSGDQLGSGDWVRYKLCMCADGTLFKVQVTSQNMGCQISDNPCGNTH [T138E] | -0.61
8 | MAAAAAAAAEQQSSNGPVKKSMREKAVERRSVNKEHNSNFKAGYIPIDEDRLHKTGLRGRKGNLAICVIILLFILAVINLIITLVIWAVIRIGPNGCDSMEFHESGLLRFKQVSDMGVIHPLYKSTVGGRRNENLVIRGNNQPIVFQQGTTKLSVENNKTSITSDIGMQFFDPRTQNILFSTDYETHEFHLPSGVKSLNVQKASTERITSNATSDLNIKVDGRAIVRGNEGVFIMGKTIEFHMGGNMELKAENSIILNGSVMVSTTRLPSSSSGDQLGSGDWVRYKLCMCADGTLFKVQVTSQNMGCQISDNPCGNTH [T138R] | -0.08
9 | MAAAAAAAAEQQSSNGPVKKSMREKAVERRSVNKEHNSNFKAGYIPIDEDRLHKTGLRGRKGNLAICVIILLFILAVINLIITLVIWAVIRIGPNGCDSMEFHESGLLRFKQVSDMGVIHPLYKSTVGGRRNENLVIGGNNQPIVFQQGTTKLSVENNKTSITSDIGMQFFDPRTQNILFSTDYETHEFHLPSGVKSLNVQKASTERITSNATSDLNIKVDGRAIVRGNEGVFIMGKTIEFHMGGNMELKAENSIILNGSVMVSTTRLPSSSSGDQLGSGDWVRYKLCMCADGTLFKVQVTSQNMGCQISDNPCGNTH [T138G] | -0.34
10 | MAAAAAAAAEQQSSNGPVKKSMREKAVERRSVNKEHNSNFKAGYIPIDEDRLHKTGLRGRKGNLAICVIILLFILAVINLIITLVIWAVIRIGPNGCDSMEFHESGLLRFKQVSDMGVIHPLYKSTVGGRRNENLVIFGNNQPIVFQQGTTKLSVENNKTSITSDIGMQFFDPRTQNILFSTDYETHEFHLPSGVKSLNVQKASTERITSNATSDLNIKVDGRAIVRGNEGVFIMGKTIEFHMGGNMELKAENSIILNGSVMVSTTRLPSSSSGDQLGSGDWVRYKLCMCADGTLFKVQVTSQNMGCQISDNPCGNTH [T138F] | 0.14
11 | MAAAAAAAAEQQSSNGPVKKSMREKAVERRSVNKEHNSNFKAGYIPIDEDRLHKTGLRGRKGNLAICVIILLFILAVINLIITLVIWAVIRIGPNGCDSMEFHESGLLRFKQVSDMGVIHPLYKSTVGGRRNENLVIIGNNQPIVFQQGTTKLSVENNKTSITSDIGMQFFDPRTQNILFSTDYETHEFHLPSGVKSLNVQKASTERITSNATSDLNIKVDGRAIVRGNEGVFIMGKTIEFHMGGNMELKAENSIILNGSVMVSTTRLPSSSSGDQLGSGDWVRYKLCMCADGTLFKVQVTSQNMGCQISDNPCGNTH [T138I] | 0.11
12 | MAAAAAAAAEQQSSNGPVKKSMREKAVERRSVNKEHNSNFKAGYIPIDEDRLHKTGLRGRKGNLAICVIILLFILAVINLIITLVIWAVIRIGPNGCDSMEFHESGLLRFKQVSDMGVIHPLYKSTVGGRRNENLVIHGNNQPIVFQQGTTKLSVENNKTSITSDIGMQFFDPRTQNILFSTDYETHEFHLPSGVKSLNVQKASTERITSNATSDLNIKVDGRAIVRGNEGVFIMGKTIEFHMGGNMELKAENSIILNGSVMVSTTRLPSSSSGDQLGSGDWVRYKLCMCADGTLFKVQVTSQNMGCQISDNPCGNTH [T138H] | 0.22
13 | MAAAAAAAAEQQSSNGPVKKSMREKAVERRSVNKEHNSNFKAGYIPIDEDRLHKTGLRGRKGNLAICVIILLFILAVINLIITLVIWAVIRIGPNGCDSMEFHESGLLRFKQVSDMGVIHPLYKSTVGGRRNENLVIDGNNQPIVFQQGTTKLSVENNKTSITSDIGMQFFDPRTQNILFSTDYETHEFHLPSGVKSLNVQKASTERITSNATSDLNIKVDGRAIVRGNEGVFIMGKTIEFHMGGNMELKAENSIILNGSVMVSTTRLPSSSSGDQLGSGDWVRYKLCMCADGTLFKVQVTSQNMGCQISDNPCGNTH [T138D] | -0.39
14 | MAAAAAAAAEQQSSNGPVKKSMREKAVERRSVNKEHNSNFKAGYIPIDEDRLHKTGLRGRKGNLAICVIILLFILAVINLIITLVIWAVIRIGPNGCDSMEFHESGLLRFKQVSDMGVIHPLYKSTVGGRRNENLVINGNNQPIVFQQGTTKLSVENNKTSITSDIGMQFFDPRTQNILFSTDYETHEFHLPSGVKSLNVQKASTERITSNATSDLNIKVDGRAIVRGNEGVFIMGKTIEFHMGGNMELKAENSIILNGSVMVSTTRLPSSSSGDQLGSGDWVRYKLCMCADGTLFKVQVTSQNMGCQISDNPCGNTH [T138N] | 0.54
15 | MAAAAAAAAEQQSSNGPVKKSMREKAVERRSVNKEHNSNFKAGYIPIDEDRLHKTGLRGRKGNLAICVIILLFILAVINLIITLVIWAVIRIGPNGCDSMEFHESGLLRFKQVSDMGVIHPLYKSTVGGRRNENLVILGNNQPIVFQQGTTKLSVENNKTSITSDIGMQFFDPRTQNILFSTDYETHEFHLPSGVKSLNVQKASTERITSNATSDLNIKVDGRAIVRGNEGVFIMGKTIEFHMGGNMELKAENSIILNGSVMVSTTRLPSSSSGDQLGSGDWVRYKLCMCADGTLFKVQVTSQNMGCQISDNPCGNTH [T138L] | 0.16
16 | MAAAAAAAAEQQSSNGPVKKSMREKAVERRSVNKEHNSNFKAGYIPIDEDRLHKTGLRGRKGNLAICVIILLFILAVINLIITLVIWAVIRIGPNGCDSMEFHESGLLRFKQVSDMGVIHPLYKSTVGGRRNENLVIKGNNQPIVFQQGTTKLSVENNKTSITSDIGMQFFDPRTQNILFSTDYETHEFHLPSGVKSLNVQKASTERITSNATSDLNIKVDGRAIVRGNEGVFIMGKTIEFHMGGNMELKAENSIILNGSVMVSTTRLPSSSSGDQLGSGDWVRYKLCMCADGTLFKVQVTSQNMGCQISDNPCGNTH [T138K] | -0.25
17 | MAAAAAAAAEQQSSNGPVKKSMREKAVERRSVNKEHNSNFKAGYIPIDEDRLHKTGLRGRKGNLAICVIILLFILAVINLIITLVIWAVIRIGPNGCDSMEFHESGLLRFKQVSDMGVIHPLYKSTVGGRRNENLVICGNNQPIVFQQGTTKLSVENNKTSITSDIGMQFFDPRTQNILFSTDYETHEFHLPSGVKSLNVQKASTERITSNATSDLNIKVDGRAIVRGNEGVFIMGKTIEFHMGGNMELKAENSIILNGSVMVSTTRLPSSSSGDQLGSGDWVRYKLCMCADGTLFKVQVTSQNMGCQISDNPCGNTH [T138C] | -0.1
18 | MAAAAAAAAEQQSSNGPVKKSMREKAVERRSVNKEHNSNFKAGYIPIDEDRLHKTGLRGRKGNLAICVIILLFILAVINLIITLVIWAVIRIGPNGCDSMEFHESGLLRFKQVSDMGVIHPLYKSTVGGRRNENLVIVGNNQPIVFQQGTTKLSVENNKTSITSDIGMQFFDPRTQNILFSTDYETHEFHLPSGVKSLNVQKASTERITSNATSDLNIKVDGRAIVRGNEGVFIMGKTIEFHMGGNMELKAENSIILNGSVMVSTTRLPSSSSGDQLGSGDWVRYKLCMCADGTLFKVQVTSQNMGCQISDNPCGNTH [T138V] | 0.19
19 | MAAAAAAAAEQQSSNGPVKKSMREKAVERRSVNKEHNSNFKAGYIPIDEDRLHKTGLRGRKGNLAICVIILLFILAVINLIITLVIWAVIRIGPNGCDSMEFHESGLLRFKQVSDMGVIHPLYKSTVGGRRNENLVIAGNNQPIVFQQGTTKLSVENNKTSITSDIGMQFFDPRTQNILFSTDYETHEFHLPSGVKSLNVQKASTERITSNATSDLNIKVDGRAIVRGNEGVFIMGKTIEFHMGGNMELKAENSIILNGSVMVSTTRLPSSSSGDQLGSGDWVRYKLCMCADGTLFKVQVTSQNMGCQISDNPCGNTH [T138A] | -0.51
